Measured values taken from article PMC7721647, “The Human RNA Helicase DDX21 Presents a Dimerization Interface Necessary for Helicase Activity” (iScience, 2020).

How the values were obtained:
DDX21_(Core-DD) (human) [1] = assay: SEC-SAXS; SAXS coupled to size exclusion chromatography; oligomeric state from SAXS molecular weight estimates (Table S3)
DDX21_(Core-DD) (human) [2] = assay: SEC-MALS; purified DDX21 constructs alone; conditions in the Transparent Methods (not shown)
DDX21_(Core-DD) (human) [3] = assay: mass photometry; purified proteins alone in the low nanomolar range (30 and 15 nM); monomer to dimer
[4] = biological target: the molecule itself; assay: cell-based or functional assay
[5] = biological target: the molecule itself; assay: mass photometry; DDX21Fl-R-loop complex at 30 nM
[6] = biological target: the molecule itself; assay: SEC-MALS; purified DDX21 constructs alone; conditions in the Transparent Methods (not shown)
DDX21Fl = biological target: T1, DDX21Fl (human, UniProt Q9NR30 1-783); assay: fluorescence polarization; FP: 50 mM Tris pH 7.5, 50 mM KCl, 5 mM MgCl2, no ATP; Hill-slope fit; temperature not given in the material; conditions: protein: recombinant; tags: N-terminal Trx-His6, cut with thrombin; chain copies: 2; label: 5'-FAM on RNA; R-loop: 15-mer RNA on DNA oligo 1; DNA duplex arms with unpaired DNA oligo 2 loop
T1 sequence: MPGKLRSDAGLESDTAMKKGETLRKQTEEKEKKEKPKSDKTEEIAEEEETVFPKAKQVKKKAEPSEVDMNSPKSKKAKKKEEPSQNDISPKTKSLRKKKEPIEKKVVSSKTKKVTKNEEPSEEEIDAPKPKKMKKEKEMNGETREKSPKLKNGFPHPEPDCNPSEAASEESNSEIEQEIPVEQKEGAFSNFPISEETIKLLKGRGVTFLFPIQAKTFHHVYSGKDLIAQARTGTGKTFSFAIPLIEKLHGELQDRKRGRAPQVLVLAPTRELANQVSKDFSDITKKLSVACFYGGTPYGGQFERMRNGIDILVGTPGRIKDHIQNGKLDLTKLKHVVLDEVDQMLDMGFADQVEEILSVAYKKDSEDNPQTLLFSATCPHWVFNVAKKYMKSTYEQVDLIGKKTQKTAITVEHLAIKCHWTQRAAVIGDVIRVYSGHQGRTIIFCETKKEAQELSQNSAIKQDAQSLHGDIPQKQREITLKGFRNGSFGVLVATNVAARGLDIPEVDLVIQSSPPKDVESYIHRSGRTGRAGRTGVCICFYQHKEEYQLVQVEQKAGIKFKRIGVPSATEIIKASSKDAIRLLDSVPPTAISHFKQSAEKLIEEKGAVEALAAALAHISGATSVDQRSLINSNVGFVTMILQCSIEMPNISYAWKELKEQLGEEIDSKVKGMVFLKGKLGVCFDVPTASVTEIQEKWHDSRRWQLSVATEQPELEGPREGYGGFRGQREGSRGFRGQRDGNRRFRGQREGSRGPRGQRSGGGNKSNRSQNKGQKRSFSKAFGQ

[7] = biological target: the molecule itself; assay: SEC-SAXS; SAXS coupled to size exclusion chromatography; oligomeric state from SAXS molecular weight estimates (Table S3)

DDX21_(Core-DD) (domain or fragment) gave a stoichiometry N (DDX21_(Core-DD) (human) [1]) of 2, a stoichiometry N (DDX21_(Core-DD) (human) [2]) of 2 and a stoichiometry N (DDX21_(Core-DD) (human) [3]) of 2.

B1: DDX21Fl monomer mutant (enzyme)
chain: MPGKLRSDAGLESDTAMKKGETLRKQTEEKEKKEKPKSDKTEEIAEEEETVFPKAKQVKKKAEPSEVDMNSPKSKKAKKKEEPSQNDISPKTKSLRKKKEPIEKKVVSSKTKKVTKNEEPSEEEIDAPKPKKMKKEKEMNGETREKSPKLKNGFPHPEPDCNPSEAASEESNSEIEQEIPVEQKEGAFSNFPISEETIKLLKGRGVTFLFPIQAKTFHHVYSGKDLIAQARTGTGKTFSFAIPLIEKLHGELQDRKRGRAPQVLVLAPTRELANQVSKDFSDITKKLSVACFYGGTPYGGQFERMRNGIDILVGTPGRIKDHIQNGKLDLTKLKHVVLDEVDQMLDMGFADQVEEILSVAYKKDSEDNPQTLLFSATCPHWVFNVAKKYMKSTYEQVDLIGKKTQKTAITVEHLAIKCHWTQRAAVIGDVIRVYSGHQGRTIIFCETKKEAQELSQNSAIKQDAQSLHGDIPQKQREITLKGFRNGSFGVLVATNVAARGLDIPEVDLVIQSSPPKDVESYIHRSGRTGRAGRTGVCICFYQHKEEYQLVQVEQKAGIKFKRIGVPSATEIIKASSKDAIRLLDSVPPTAISHFKQSAEKLIEEKGAVEARRRRRRHISGATSVDQRSLINSNVGFVTMILQCSIEMPNISYAWKELKEQLGEEIDSKVKGMVFLKGKLGVCFDVPTASVTEIQEKWHDSRRWQLSVATEQPELEGPREGYGGFRGQREGSRGFRGQRDGNRRFRGQREGSRGPRGQRSGGGNKSNRSQNKGQKRSFSKAFGQ
For B1, the “dsRNA unwinding (in vitro helicase assay with RNase T1), activity relative to the dimeric protein” value [4] was roughly 50%.

B2: full-length DDX21 (DDX21Fl) with uncleaved affinity tag (enzyme, human, UniProt Q9NR30 1-783, looked up)
chain: MPGKLRSDAGLESDTAMKKGETLRKQTEEKEKKEKPKSDKTEEIAEEEETVFPKAKQVKKKAEPSEVDMNSPKSKKAKKKEEPSQNDISPKTKSLRKKKEPIEKKVVSSKTKKVTKNEEPSEEEIDAPKPKKMKKEKEMNGETREKSPKLKNGFPHPEPDCNPSEAASEESNSEIEQEIPVEQKEGAFSNFPISEETIKLLKGRGVTFLFPIQAKTFHHVYSGKDLIAQARTGTGKTFSFAIPLIEKLHGELQDRKRGRAPQVLVLAPTRELANQVSKDFSDITKKLSVACFYGGTPYGGQFERMRNGIDILVGTPGRIKDHIQNGKLDLTKLKHVVLDEVDQMLDMGFADQVEEILSVAYKKDSEDNPQTLLFSATCPHWVFNVAKKYMKSTYEQVDLIGKKTQKTAITVEHLAIKCHWTQRAAVIGDVIRVYSGHQGRTIIFCETKKEAQELSQNSAIKQDAQSLHGDIPQKQREITLKGFRNGSFGVLVATNVAARGLDIPEVDLVIQSSPPKDVESYIHRSGRTGRAGRTGVCICFYQHKEEYQLVQVEQKAGIKFKRIGVPSATEIIKASSKDAIRLLDSVPPTAISHFKQSAEKLIEEKGAVEALAAALAHISGATSVDQRSLINSNVGFVTMILQCSIEMPNISYAWKELKEQLGEEIDSKVKGMVFLKGKLGVCFDVPTASVTEIQEKWHDSRRWQLSVATEQPELEGPREGYGGFRGQREGSRGFRGQRDGNRRFRGQREGSRGPRGQRSGGGNKSNRSQNKGQKRSFSKAFGQ
notes: human DEAD-box RNA helicase DDX21, full length; Form used in mass photometry; also called wild-type protein; source: Transparent Methods
B2 was tested, and the “stoichiometry N” value [5] was 2.

B3: full-length DDX21 (DDX21Fl), affinity tag cleaved (enzyme, human, UniProt Q9NR30 1-783, looked up)
chain: MPGKLRSDAGLESDTAMKKGETLRKQTEEKEKKEKPKSDKTEEIAEEEETVFPKAKQVKKKAEPSEVDMNSPKSKKAKKKEEPSQNDISPKTKSLRKKKEPIEKKVVSSKTKKVTKNEEPSEEEIDAPKPKKMKKEKEMNGETREKSPKLKNGFPHPEPDCNPSEAASEESNSEIEQEIPVEQKEGAFSNFPISEETIKLLKGRGVTFLFPIQAKTFHHVYSGKDLIAQARTGTGKTFSFAIPLIEKLHGELQDRKRGRAPQVLVLAPTRELANQVSKDFSDITKKLSVACFYGGTPYGGQFERMRNGIDILVGTPGRIKDHIQNGKLDLTKLKHVVLDEVDQMLDMGFADQVEEILSVAYKKDSEDNPQTLLFSATCPHWVFNVAKKYMKSTYEQVDLIGKKTQKTAITVEHLAIKCHWTQRAAVIGDVIRVYSGHQGRTIIFCETKKEAQELSQNSAIKQDAQSLHGDIPQKQREITLKGFRNGSFGVLVATNVAARGLDIPEVDLVIQSSPPKDVESYIHRSGRTGRAGRTGVCICFYQHKEEYQLVQVEQKAGIKFKRIGVPSATEIIKASSKDAIRLLDSVPPTAISHFKQSAEKLIEEKGAVEALAAALAHISGATSVDQRSLINSNVGFVTMILQCSIEMPNISYAWKELKEQLGEEIDSKVKGMVFLKGKLGVCFDVPTASVTEIQEKWHDSRRWQLSVATEQPELEGPREGYGGFRGQREGSRGFRGQRDGNRRFRGQREGSRGPRGQRSGGGNKSNRSQNKGQKRSFSKAFGQ
notes: human DEAD-box RNA helicase DDX21, full length; Tag state is told only for the SEC-MALS mass (cleaved); Construct details are in the Transparent Methods; also called nucleolar RNA helicase II/Guα; source: Transparent Methods
B3 was tested, and the “stoichiometry N” value [6] was 2.

B4: R-loop (mixed)
RNA: GUUUCGGAUCGACGC
DNA 1: GTACCCGGGGATCCTCTAGAGTCGAGCGTCGATCCGAAACTTGGCACTGGCCGTCGTTTTACAAC
DNA 2: GTTGTAAAACGACGGCCAGTGCCTTTTCCCAGCCTCAATCTCATCACTCTAGAGGATCCCCGGGTAC
In the case of B4, the Kd (DDX21Fl) is reported as 9.2 ± 0.7 nM.

B5: DDX21ΔN monomer mutant (domain or fragment)
chain: GAFSNFPISEETIKLLKGRGVTFLFPIQAKTFHHVYSGKDLIAQARTGTGKTFSFAIPLIEKLHGELQDRKRGRAPQVLVLAPTRELANQVSKDFSDITKKLSVACFYGGTPYGGQFERMRNGIDILVGTPGRIKDHIQNGKLDLTKLKHVVLDEVDQMLDMGFADQVEEILSVAYKKDSEDNPQTLLFSATCPHWVFNVAKKYMKSTYEQVDLIGKKTQKTAITVEHLAIKCHWTQRAAVIGDVIRVYSGHQGRTIIFCETKKEAQELSQNSAIKQDAQSLHGDIPQKQREITLKGFRNGSFGVLVATNVAARGLDIPEVDLVIQSSPPKDVESYIHRSGRTGRAGRTGVCICFYQHKEEYQLVQVEQKAGIKFKRIGVPSATEIIKASSKDAIRLLDSVPPTAISHFKQSAEKLIEEKGAVEARRRRRRHISGATSVDQRSLINSNVGFVTMILQCSIEMPNISYAWKELKEQLGEEIDSKVKGMVFLKGKLGVCFDVPTASVTEIQEKWHDSRRWQLSVATEQPELEGPREGYGGFRGQREGSRGFRGQRDGNRRFRGQREGSRGPRGQRSGGGNKSNRSQNKGQKRSFSKAFGQ
In the case of B5, the “dsRNA unwinding (in vitro helicase assay with RNase T1), activity relative to the dimeric protein” value [4] is reported as roughly 50%.

B6: DDX21ΔN (domain or fragment, human, UniProt Q9NR30 186-783, looked up)
chain: GAFSNFPISEETIKLLKGRGVTFLFPIQAKTFHHVYSGKDLIAQARTGTGKTFSFAIPLIEKLHGELQDRKRGRAPQVLVLAPTRELANQVSKDFSDITKKLSVACFYGGTPYGGQFERMRNGIDILVGTPGRIKDHIQNGKLDLTKLKHVVLDEVDQMLDMGFADQVEEILSVAYKKDSEDNPQTLLFSATCPHWVFNVAKKYMKSTYEQVDLIGKKTQKTAITVEHLAIKCHWTQRAAVIGDVIRVYSGHQGRTIIFCETKKEAQELSQNSAIKQDAQSLHGDIPQKQREITLKGFRNGSFGVLVATNVAARGLDIPEVDLVIQSSPPKDVESYIHRSGRTGRAGRTGVCICFYQHKEEYQLVQVEQKAGIKFKRIGVPSATEIIKASSKDAIRLLDSVPPTAISHFKQSAEKLIEEKGAVEALAAALAHISGATSVDQRSLINSNVGFVTMILQCSIEMPNISYAWKELKEQLGEEIDSKVKGMVFLKGKLGVCFDVPTASVTEIQEKWHDSRRWQLSVATEQPELEGPREGYGGFRGQREGSRGFRGQRDGNRRFRGQREGSRGPRGQRSGGGNKSNRSQNKGQKRSFSKAFGQ
notes: human DDX21 without the N-terminal 185 amino acids (start 186 worked out from this statement); source: Transparent Methods
With B6 the “stoichiometry N” value [7] was 2.
